Measured values taken from patent US5445951A, “Regioselective enzymatic deacylation of sucrose esters in anhydrous organic media” (priority 1993, dated 1995).

Columns and labels:
[1] = SOA deacetylation catalyzed by pH precipitated enzymes in diisopropyl ether; format: biochemical; details: for buffer pH (optimal pH for enzyme activity in anhydrous solvents): SOA deacetylation; for SheptaAs / ShexaAs / SOA: diisopropyl ether, 24 hrs incubation, HPLC; for SOA: residual SOA
Method: A wide variety of hydrolytic enzymes were initially screened for their ability to regioselectively deacetylate SOA in organic solvents. […] Enzyme activity is dependent upon the presence of a minimum shell of water surrounding the enzyme. […] It is known that one way to improve the catalytic power of an enzyme in organic solvent is to use it in the right ionic state.
(§1) The pH of commercial powdered enzymes was adjusted in the following way: The enzyme (3 g) was dissolved in 25 ml of an appropriate buffer and the pH adjusted with dilute NaOH or citric/phosphoric acid solution. Cold acetone (37.5 ml at -20° C.) was added and the precipitate collected on a medium porosity glass funnel and dried overnight at 2 millitorr. The protein pellet was ground to a fine powder and equilibrated at 4° C. over saturated aqueous potassium carbonate (RH: 43%) for 24 hrs.
(§2) Enzyme and Solvent Screening for SOA Deacetylation. A scintillation vial was charged successively with 100 mg of powdered enzyme as received or prepared as described and 1.0 ml of 20 mM sucrose octaacetate (SOA) dissolved in an organic solvent. Following a 5 sec sonication, the vial was incubated in a controlled-temperature shaker at 45° C. and 300 RPM for 24 hrs. A 200 μl aliquot of the reaction mixture was withdrawn and centrifuged. The supernatant was collected and evaporated under a stream of N2. The residue was reconstituted in 200 μl of acetonitrile and 10 μl of this solution was analyzed by HPLC.

[2] = Activity and regioselectivity of enzymes for SOA deacetylation; format: biochemical; details: for buffer pH (optimal pH for enzyme activity in anhydrous diisopropyl ether): SOA deacetylation; for % conv: total of all sucrose hepta and hexa acetates; for regioselectivity of SOA deacetylation: in words
Method: An important aspect of this work was to assign, unequivocally, the structures of all sucrose hepta-, hexa-, and pentaacetates obtained by enzymatic deacetylation of SOA. These structures were assigned by perdeuterioacetylation followed by ^1 H-NMR, as described by Rathbone E. B., Carbohydr. Res., 205,402 (1990).
HPLC analysis. Routine screening was performed on a Supelcosil LC-18-DB column (150×4.6 mm, 5μ) using an isocratic mode with either acetonitrile/water (35/65) or acetonitrile/water (60/40) as eluant for reactions involving sucrose octaacetate (SOA) and sucrose octapropionate (SOP), respectively. All flow rates were 1.0 ml/min with UV detection at 220 nm. To identify all products from SOA deacetylation, a gradient mode was employed using 15% to 35% acetonitrile in water over 40 minutes followed by 35/65 acetonitrile/water isocratic elution for 20 minutes. To screen nucleophiles for SOA deacetylation, an isocratic elution mode was employed using 30/70 acetonitrile/water for 16 min followed by a gradient from 30% to 35% acetonitrile in water over 5 min and finally isocratic elution using 35/65 acetonitrile/water for 16 min. To assess the enzyme regiochemistry for SOA deacetylation, an isocratic elution mode was employed using 25/75 acetonitrile/water for 55 minutes.
Identification of the Sucrose Hepta, Hexa or Pentaacetates Obtained Enzymatically. The fraction of sucrose hepta, hexa or pentaacetates were identified as follows. The compound(s) of interest was dissolved in 1.0 ml 99.0 atom % pyridine--d5 followed by addition of 1.0 ml 99 +atom % acetic anhydride--d6. The resulting solution was shaken at 45° C. and 300 RPM for several hours until TLC analysis (silica gel, 9/1 CHCl3 /MeOH) indicated complete reaction. The reaction mixture was evaporated in vacuo and the residue washed several times with water to remove residual pyridine-d5 and/or acetic anhydride-d6. The resulting oily solid was dissolved in 5 ml off chloroform and passed through Whatmann 12.5 cm 1 PS silicone treated filter paper to remove water.
as §1, §2

[3] = SOP hydrolytic enzyme screen in heptane with n-butanol; format: biochemical; details: 24 hrs; for SheptaP's ([…]): HPLC peak […]; for SOP: residual SOP; for SheptaP's ([…]): HPLC peak 8.2 min
Method: To extend the scope and utility of this study, sucrose octapropionate was synthesized and used as substrate in enzyme catalyzed deacylation reactions. […] The hydrolytic enzymes were screened for their capability to deacylate SOP in heptane with n-butanol as the nucleophile. After 24 hrs incubation aliquots were analyzed by HPLC.
as §2, with “screening” for “and Solvent Screening”, “SOP deacylation in heptane.” for “SOA Deacetylation.”, “octapropionate (SOP) and 200 mM butanol” for “octaacetate (SOA)”, “and” for “and evaporated under a stream of N2. The residue was reconstituted in 200 μl of acetonitrile and”

[4] = SOP deacylation catalyzed by pH precipitated enzymes in diisopropyl ether; format: biochemical; details: for buffer pH (optimal pH for enzyme activity in anhydrous media): SOP deacylation; for SOP / SheptaP's / ShexaP's: diisopropyl ether, 24 hrs
Method: To increase the number and/or activities of enzymes active with SOP, pH precipitation experiments, as described for SOA, were undertaken.
as §1

[5] = as obtained from supplier; cited from earlier work
[6] = Solubility in hydrophobic solvents; format: physicochemical; details: more hydrophobic solvents, e.g., hexane, cyclohexane, heptane, octane
[7] = HPLC sucrose heptaacetate peak height

chymotrypsin
buffer pH (optimal pH for enzyme activity in anhydrous solvents) [1]: 8.0 | SheptaAs [1]: 2.5% | ShexaAs [1]: 0% | SOA [1]: 97.5% | buffer pH (optimal pH for enzyme activity in anhydrous diisopropyl ether) [2]: 8.0 | % conv [2]: < 6% | SheptaP's ([…]) [3]: 3.9 | SOP [3]: 96.1% | buffer pH (optimal pH for enzyme activity in anhydrous media) [4]: 8.0 | SOP [4]: 98.2% | SheptaP's [4]: 1.8% | ShexaP's [4]: 0% | enzyme activity [5]: 48 U/mg

CCC(=O)OC[C@H]1O[C@@](COC(=O)CC)(O[C@H]2O[C@H](COC(=O)CC)[C@@H](OC(=O)CC)[C@H](OC(=O)CC)[C@H]2OC(=O)CC)[C@@H](OC(=O)CC)[C@@H]1OC(=O)CC [SOP, sucrose octapropionate]
solubility versus SOA [6]: significantly enhanced solubility

B1: lipase type II: Sigma, porcine pancreas, 50 U/mg (protein, UniProt P00591 1-450, looked up)
Pancreatic triacylglycerol …: SEVCFPRLGCFSDDAPWAGIVQRPLKILPWSPKDVDTRFLLYTNQNQNNYQELVADPSTITNSNFRMDRKTRFIIHGFIDKGEEDWLSNICKNLFKVESVNCICVDWKGGSRTGYTQASQNIRIVGAEVAYFVEVLKSSLGYSPSNVHVIGHSLGSHAAGEAGRRTNGTIERITGLDPAEPCFQGTPELVRLDPSDAKFVDVIHTDAAPIIPNLGFGMSQTVGHLDFFPNGGKQMPGCQKNILSQIVDIDGIWEGTRDFVACNHLRSYKYYADSILNPDGFAGFPCDSYNVFTANKCFPCPSEGCPQMGHYADRFPGKTNGVSQVFYLNTGDASNFARWRYKVSVTLSGKKVTGHILVSLFGNEGNSRQYEIYKGTLQPDNTHSDEFDSDVEVGDLQKVKFIWYNNNVINPTLPRVGASKITVERNDGKVYDFCSQETVREEVLLTLNPC
buffer pH (optimal pH for enzyme activity in anhydrous solvents) [1]: 7.0 | SheptaAs [1]: 13.5% | ShexaAs [1]: 0.6% | SOA [1]: 85.9% | regiochemistry 4'OH [2, 7]: 1 | regiochemistry 6'OH [2, 7]: 1 | buffer pH (optimal pH for enzyme activity in anhydrous diisopropyl ether) [2]: 7.0 | regioselectivity of SOA deacetylation [2]: the primary deacetylation product is the 4'- OH heptaacetate | regioselectivity of SOA deacetylation ([2]; listed as Porcine pancreatic lipase): at the 4' position | % conv [2]: 14.1% | SheptaP's (9.2 min) ([3]; HPLC peak 9.2 min): 0.2 | SheptaP's ([…]) [3]: 1.7 | BuOpropionate ([3]; butyl propionate formed, peak area): 59 cAUs | SOP [3]: 98.1% | buffer pH (optimal pH for enzyme activity in anhydrous media) [4]: 7.0 | SOP [4]: 96.5% | SheptaP's [4]: 3.5% | ShexaP's [4]: 0% | capability of deacetylating SOP ([4]; pH precipitated, in words): capable of deacetylating SOP | enzyme activity [5]: 50 U/mg
